Measured values from the supplement of paper PMC10724198.
± gives the standard deviation of the averaged measurements.

Tests used:
Saccharomyces cerevisiae [1] = test: protein stability index of tFT-peptide fusion (C-terminal peptide) (PSI (0-1 scale)); higher = more stable (slower turnover)
Procedure: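 MPS profiling in S. cerevisiae of the tFT-X12 degron library: putative degron peptides plus stable controls, 12 aa, fused to the C-terminus of a sfGFP-mCherry timer. Cells are FACS-sorted into 8 mCherry/sfGFP bins and deep-sequenced. PSI runs from 0 (unstable) to 1 (stable). Backgrounds are wild type, das1Δ and doa10Δ at 30 °C, and wild type, das1Δ, cdc34-1 and cdc53-1 at 37 °C; 2-3 technical replicates each.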

Saccharomyces cerevisiae [2] = test: as above; settings: genetic background: wild type; temperature: 30 C
[3] = genetic background: cdc34-1, temperature: 37 C
[4] = genetic background: cdc53-1, temperature: 37 C
[5] = genetic background: das1 deletion, temperature: 30 C
[6] = genetic background: das1 deletion, temperature: 37 C
[7] = genetic background: doa10 deletion, temperature: 30 C
[8] = genetic background: wild type, temperature: 30 C
[9] = genetic background: wild type, temperature: 37 C
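Note: PSI is a weighted mean of sequencing reads over stability bins, variants kept only with over 10 reads, mCherry proximal and sfGFP distal, peptide attached via GGGS linker.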

Sequence	protein stability index (Saccharomyces cerevisiae [1]; [3])	protein stability index (Saccharomyces cerevisiae [1]; [4])	protein stability index (Saccharomyces cerevisiae [1]; [5])	protein stability index (Saccharomyces cerevisiae [1]; [6])	protein stability index (Saccharomyces cerevisiae [1]; [7])	protein stability index (Saccharomyces cerevisiae [1]; [8])	protein stability index (Saccharomyces cerevisiae [1]; [9])	protein stability index (Saccharomyces cerevisiae [2])
VVACCVVFWVLP	0.232 ± 0.017	0.469 ± 0.042	0.27 ± 0.028	0.481 ± 0.016	0.231 ± 0.011	0.292 ± 0.022	0.507 ± 0.013	0.437 ± 0.086
VVCLCEYRLHIF	0.203 ± 0.029	0.274 ± 0.031	0.214 ± 0.034	0.399 ± 0.011	0.0658 ± 0.017	0.0733 ± 0.033	0.0928 ± 0.0073	0.0917 ± 0.047
VVFSLLLWLFIS	0.256 ± 0.022	0.405 ± 0.024	0.316 ± 0.047	0.47 ± 0.0075	0.161 ± 0.003	0.168 ± 0.018	0.194 ± 0.0057	0.216 ± 0.029
VVGLSLLFSGGV	0.687 ± 0.011	0.755 ± 0.021	0.644 ± 0.015	0.7583 ± 0.0016	0.662 ± 0.025	0.6572 ± 0.0032	0.727 ± 0.0093	0.694 ± 0.021
VVQCRFPTPCVV	0.486 ± 0.035	0.485 ± 0.033	0.372 ± 0.03	0.5335 ± 0.0022	0.349 ± 0.0096	0.376 ± 0.027	0.496 ± 0.022	0.476 ± 0.013
VVSLGGWCLYIY	0.423 ± 0.061	0.4605 ± 0.0016	0.416 ± 0.032	0.461 ± 0.012	0.385 ± 0.023	0.333 ± 0.019	0.416 ± 0.0093	0.412 ± 0.025
VVVFGWIGYLYL	0.366 ± 0.028	0.499 ± 0.05	0.311 ± 0.044	0.511 ± 0.021	0.282 ± 0.019	0.288 ± 0.044	0.482 ± 0.062	0.327 ± 0.071
VVVHFVLVCSTS	0.0899 ± 0.0074	0.237 ± 0.057	0.141 ± 0.026	0.284 ± 0.0084	0.116 ± 0.011	0.13 ± 0.024	0.271 ± 0.014	0.289 ± 0.038
VWFLLFVVWCGS	0.212 ± 0.01	0.282 ± 0.024	0.217 ± 0.022	0.384 ± 0.0055	0.186 ± 0.021	0.204 ± 0.034	0.316 ± 0.0071	0.309 ± 0.031
VWLAWCIVGGLG	0.472 ± 0.0083	0.5494 ± 0.0026	0.386 ± 0.024	0.5441 ± 0.0026	0.352 ± 0.015	0.369 ± 0.028	0.523 ± 0.0062	0.428 ± 0.03
VWVAWLGGAILA	0.149 ± 0.021	0.188 ± 0.012	0.2 ± 0.029	0.29 ± 0.0052	0.174 ± 0.024	0.194 ± 0.022	0.272 ± 0.0045	0.267 ± 0.021
VYCCVRSLRVAI	0.553 ± 0.0082	0.677 ± 0.047	0.471 ± 0.035	0.6347 ± 0.0019	0.395 ± 0.022	0.428 ± 0.023	0.5746 ± 0.0014	0.496 ± 0.0097
VYVRYYVRVVVI	0.0256 ± 0.0012	0.0406 ± 0.00046	0.0781 ± 0.04	0.167 ± 0.024	0.0369 ± 0.0049	0.046 ± 0.016	0.0659 ± 0.0096	0.115 ± 0.012
WCFFFVGCCCFG	0.557 ± 0.044	0.59 ± 0.03	0.462 ± 0.034	0.5249 ± 0.004	0.479 ± 0.0084	0.481 ± 0.031	0.537 ± 0.013	0.479 ± 0.0056
WCFGSLLIRFSL	0.416 ± 0.057	0.446 ± 0.016	0.453 ± 0.04	0.5548 ± 0.0037	0.5049 ± 0.00066	0.411 ± 0.0096	0.516 ± 0.013	0.458 ± 0.024
WDLYFSVVYRVV	0.35 ± 0.04	0.484 ± 0.017	0.403 ± 0.015	0.491 ± 0.017	0.0435 ± 0.021	0.0544 ± 0.0073	0.093 ± 0.0024	0.114 ± 0.0017
WFFPVSPPVMAS	0.181 ± 0.027	0.1945 ± 0.00051	0.202 ± 0.032	0.3 ± 0.013	0.175 ± 0.004	0.211 ± 0.026	0.265 ± 0.0075	0.288 ± 0.013
WFLFVLCAWGFF	0.295 ± 0.026	0.339 ± 0.0033	0.263 ± 0.013	0.374 ± 0.039	0.263 ± 0.014	0.241 ± 0.012	0.3042 ± 0.00084	0.135 ± 0.0012
WFLLSLSSFVSS	0.427 ± 0.03	0.415 ± 0.11	0.363 ± 0.023	0.469 ± 0.0061	0.358 ± 0.037	0.351 ± 0.0038	0.4555 ± 0.00088	0.427 ± 0.015
